Eight molecules from US20250002586A1 (CDR LIFE, published 2025) can be followed below.

B1: CDR-5 (bispecific antibody)
heavy: EVQLVESGGGSVQPGGSLRLSCAASGFTFSTYAMNWVRQAPGKGLEWVGRIRSKANNYATYYADSVKGRFTISRDDSKNTLYLQMNSLRAEDTATYYCVRHGNFGDSYVSWFAYWGQGTTVTVSSASTKGPSVFPLAPSSKSTSGGTAALGCLVKDYFPEPVTVSWNSGALTSGVHTFPAVLQSSGLYSLSSVVTVPSSSLGTQTYICNVNHKPSNTKVDKRVEPKSCGGGGSEVQLVESGGGLAQAGGSLRVSCVASGRPFTKYAWGWFRQAPGKAREFVATITWDGGKTDYADSVKGRFTISKDSAENSIYLQMNSLKPEDTAVYYCAADRNYCVGHRCYVRPDDYDYWGQGTQVTVSS
light: EVQLVESGGGLAQAGGSLRVSCVASGRPFTKYAWGWFRQAPGKAREFVATITWDGGKTDYADSVKGRFTISKDSAENSIYLQMNSLKPEDTAVYYCAADRNYCVGHRCYVRPDDYDYWGQGTQVTVSSGGGGSAVVTQEPSLTVSPGGTVTLTCGSSTGAVTTSNYANWVQQKPGKSPRGLIGGTNKRAPGVPARFSGSLLGGKAALTISGAQPEDEADYYCALWYSNHWVFGGGTKLTVLGTVAAPSVFIFPPSDEQLKSGTASVVCLLNNFYPREAKVQWKVDNALQSGNSQESVTEQDSKDSTYSLSSTLTLSKADYEKHKVYACEVTHQGLSSPVTKSFNRGEC
B2: CDR-10 (bispecific antibody)
heavy: EVQLVESGGGLVQPGGSLRLSCAASGFTFSTYAMNWVRQAPGKGLEWVGRIRSKYNNYATYYADSVKGRFTISRDDSKNTLYLQMNSLRAEDTAVYYCVRHGNFGDSYVSWFAYWGQGTLVTVSSASTKGPSVFPLAPSSKSTSGGTAALGCLVKDYFPEPVTVSWNSGALTSGVHTFPAVLQSSGLYSLSSVVTVPSSSLGTQTYICNVNHKPSNTKVDKRVEPKSCGGGGSEVQLVESGGGLVQPGGSLRLSCVASGRPFTKYAWGWFRQAPGKAREFVATITWDGGKTDYADSVKGRFTISKDSAKNSIYLQMNSLRAEDTAVYYCAADRNYCVGHRCYVRPDDYDYWGQGTLVTVSS
light: QAVVTQEPSLTVSPGGTVTLTCGSSTGAVTTSNYANWVQQKPGKSPRGLIGGTNKRAPGVPARFSGSLLGGKAALTISGAQPEDEADYYCALWYSNHWVFGGGTKLTVLGTVAAPSVFIFPPSDEQLKSGTASVVCLLNNFYPREAKVQWKVDNALQSGNSQESVTEQDSKDSTYSLSSTLTLSKADYEKHKVYACEVTHQGLSSPVTKSFNRGECGGGGSEVQLVESGGGLVQPGGSLRLSCVASGRPFTKYAWGWFRQAPGKAREFVATITWDGGKTDYADSVKGRFTISKDSAKNSIYLQMNSLRAEDTAVYYCAADRNYCVGHRCYVRPDDYDYWGQGTLVTVSS
notes: no Fc
B3: CDR-11 (bispecific antibody)
heavy: B2 heavy with D106N
light: B2 light with G23R, K44Q, S45A
notes: no Fc
B4: CDR-9 (bispecific antibody)
heavy: B2 heavy with Y55A
light: QAVVTQEPSLTVSPGGTVTLTCGSSTGAVTTSNYANWVQQKPGKSPRGLIGGTNKRAPGVPARFSGSLLGGKAALTISGAQPEDEADYYCALWYSNHWVFGGGTKLTVLGTVAAPSVFIFPPSDEQLKSGTASVVCLLNNFYPREAKVQWKVDNALQSGNSQESVTEQDSKDSTYSLSSTLTLSKADYEKHKVYACEVTHQGLSSPVTKSFNRGECGGGGSEVQLVESGGGLVQPGGSLRLSCVASGRPFTKYAWGWFRQAPGKAREFVATITWDGGKTDYADSVKGRFTISKDSAKNSIYLQMNSLRAEDTAVYYCAADRNYCVGHRCYVRPDDYDYWGQGTLVTVS
notes: no Fc
B5: CDR-1 (bispecific antibody)
heavy: EVQLVESGGGSVQPGGSLRLSCAASGFTFSTYAMNWVRQAPGKGLEWVGRIRSKANNYATYYADSVKGRFTISRDDSKNTLYLQMNSLRAEDTATYYCVRHGNFGDSYVSWFAYWGQGTTVTVSSASTKGPSVFPLAPSSKSTSGGTAALGCLVKDYFPEPVTVSWNSGALTSGVHTFPAVLQSSGLYSLSSVVTVPSSSLGTQTYICNVNHKPSNTKVDKRVEPKSC
light: B1 light
notes: no Fc; also called Format #1; monovalent Fab-VHH HLA-A2/MAGE-A4 x CD3 bispecific
B6: CDR-2 (bispecific antibody)
heavy: B5 heavy
light: AVVTQEPSLTVSPGGTVTLTCGSSTGAVTTSNYANWVQQKPGKSPRGLIGGTNKRAPGVPARFSGSLLGGKAALTISGAQPEDEADYYCALWYSNHWVFGGGTKLTVLGTVAAPSVFIFPPSDEQLKSGTASVVCLLNNFYPREAKVQWKVDNALQSGNSQESVTEQDSKDSTYSLSSTLTLSKADYEKHKVYACEVTHQGLSSPVTKSFNRGECGGGGSEVQLVESGGGLAQAGGSLRVSCVASGRPFTKYAWGWFRQAPGKAREFVATITWDGGKTDYADSVKGRFTISKDSAENSIYLQMNSLKPEDTAVYYCAADRNYCVGHRCYVRPDDYDYWGQGTQVTVSS
notes: no Fc; also called Format #2; monovalent Fab-VHH HLA-A2/MAGE-A4 x CD3 bispecific
B7: CDR-3 (bispecific antibody)
heavy: B1 heavy
light: AVVTQEPSLTVSPGGTVTLTCGSSTGAVTTSNYANWVQQKPGKSPRGLIGGTNKRAPGVPARFSGSLLGGKAALTISGAQPEDEADYYCALWYSNHWVFGGGTKLTVLGTVAAPSVFIFPPSDEQLKSGTASVVCLLNNFYPREAKVQWKVDNALQSGNSQESVTEQDSKDSTYSLSSTLTLSKADYEKHKVYACEVTHQGLSSPVTKSFNRGEC
notes: no Fc; also called Format #3; monovalent Fab-VHH
B8: CDR-4 (bispecific antibody)
heavy: EVQLVESGGGLAQAGGSLRVSCVASGRPFTKYAWGWFRQAPGKAREFVATITWDGGKTDYADSVKGRFTISKDSAENSIYLQMNSLKPEDTAVYYCAADRNYCVGHRCYVRPDDYDYWGQGTQVTVSSGGGGSEVQLVESGGGSVQPGGSLRLSCAASGFTFSTYAMNWVRQAPGKGLEWVGRIRSKANNYATYYADSVKGRFTISRDDSKNTLYLQMNSLRAEDTATYYCVRHGNFGDSYVSWFAYWGQGTTVTVSSASTKGPSVFPLAPSSKSTSGGTAALGCLVKDYFPEPVTVSWNSGALTSGVHTFPAVLQSSGLYSLSSVVTVPSSSLGTQTYICNVNHKPSNTKVDKRVEPKSC
light: B7 light
notes: no Fc; also called Format #4; monovalent Fab-VHH HLA-A2/MAGE-A4 x CD3 bispecific

Positions count from the first letter of the chain named.

The target in the first test is T1, MAGE-A4 peptide … presented by HLA-A*02:01 on cells (human). The test is described as follows: cell-based or functional assay.
Take B1: the “U20S cell killing, IC50” value was 0.01 nM.

A further test deals with CD3 heterodimer (Acro Biosystems) (UniProt P07766 23-126). As to the kind of experiment: SPR (Biacore T200), CD3 heterodimer on HC30M chip, 1:1 Langmuir fit.
Chain of CD3 heterodimer (Acro Biosystems) (P07766 23-126, one chain of several): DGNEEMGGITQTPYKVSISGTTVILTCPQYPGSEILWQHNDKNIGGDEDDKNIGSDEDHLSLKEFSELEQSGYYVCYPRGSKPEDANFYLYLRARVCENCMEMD
Usually Kd stands for the constant that tells how readily two partners part at equilibrium. B2 showed a Kd of 11 nM. In turn, B3 displayed a Kd of 1.2 nM. On the same count and under the same terms, next, B4: 54 nM.

Another test concerns the target T1, MAGE-A4 peptide … presented by …. The test is described as follows: cell-based or functional assay. The source holds these as a separate data set.
For B5, the “U20S cell killing, IC50” value was found to be 0.1 nM.

Turning to B6, the “U20S cell killing, IC50” value stood at 0.18 nM. On the same count and under the same terms, next, B7: 0.24 nM.

As to B8, the “U20S cell killing, IC50” value is 0.5 nM.

Another test has as its target T2, HLA-A*02:01 in complex with the MAGE-A4 peptide … (human).
T2 construct: Recombinant complex as immobilised (500 RU) for SPR; also called HLA-A2/MAGE-A4 complex; pMHC-MAGE-A4 antigen
The test is described as follows: SPR (Biacore T200), HLA-A*02:01/MAGE-A4 peptide complex on streptavidin chip, 1:1 Langmuir fit. On the technique in general: SPR reads the build-up and loss of mass on a sensor chip optically.
Procedure: Affinity characterization of HLA-A2/MAGE-A4×CD3 bispecific antibodies was performed by surface plasmon resonance (SPR). All experiments were conducted using a Biacore™ T200 Device (Cytiva). To determine the kinetic parameters of the binding of the bispecific antibodies to the HLA-A2/MAGE-A4 complex, a streptavidin chip (SAHC30M, XanTec) was coated according to the manufacturer's instructions with 500 RU HLA-A*02:01 in complex with the MAGE-A4 peptide. The resulting affinities presented herein correspond to the measurements performed with the respective monovalent antigen binding proteins. […] Uncoated channels were used for referencing. Data fitting was performed using a 1:1 Langmuir model.
As to B5, the affinity, expressed as Kd, was 1.5 nM.

For B6, the Kd is 2.6 nM. The same measure, in the same setting: next, B7: 1.9 nM; B8: 1.3 nM.
